Drawing on US20100278832A1 (Chugai, published 2010), this text covers binding result and Kd for 1 molecule.

The Kd is the equilibrium constant for the complex coming apart.

The target of one assay is T1, human BST2H (human).
T1 construct: Expressed from pcDNA3.1-hBST2H on CHO-K1 cells (BST2H-CHO line); Splicing variant H, 158 residues; also called type H BST2; BST2H-CHO cells
T1 chain: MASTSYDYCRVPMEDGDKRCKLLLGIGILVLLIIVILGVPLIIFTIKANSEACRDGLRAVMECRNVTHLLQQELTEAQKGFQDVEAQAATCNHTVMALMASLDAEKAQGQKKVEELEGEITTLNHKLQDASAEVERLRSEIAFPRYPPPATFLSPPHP
As to the kind of experiment: flow cytometry on BST2H-CHO cells. For orientation: A flow cytometer gives signals particle by particle.

Assay [1] has as its target T2, His-tagged recombinant human BST2 protein K(47)-V(146) (human, UniProt Q10589 47-146).
T2 construct: Expressed in E. coli BL21(DE3); denatured and reduced for Western blotting; also called lane 8: K(47)--V(146); not shown: N-terminal His tag supplied by vector pET32
T2 sequence: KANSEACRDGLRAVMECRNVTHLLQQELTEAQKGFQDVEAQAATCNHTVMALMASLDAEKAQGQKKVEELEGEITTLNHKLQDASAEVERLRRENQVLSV
As to the kind of experiment: Western blot of His-tagged BST2 fragment. Here is the method: (§1) The His-tagged human BST2 proteins (synthesized as described in A) were each dissolved in sample buffer, and heated at 70° C. for ten minutes. The dissolved proteins were fractionated on a 4-20% SDS-PAGE gradient gel (Invitrogen) and transferred onto PVDF membrane (Millipore). The membrane was blocked with BSA and incubated with 1 μg/ml antibody 4LD or 2000× diluted anti-His tag antibody (Novagen). After reaction with an HRP-labeled anti-mouse IgG antibody (Jackson), ECL Detection Reagent (GE Healthcare) was reacted for chemical luminescence, and the His-tagged human BST2 proteins were detected using LAS-1000 from Fuji Film.
For orientation: In western blotting, separated proteins are transferred to a membrane and probed.

Assay [2] concerns the target T3, His-tagged recombinant human BST2 protein K(47)-S(145) (human, UniProt Q10589 47-145).
T3 construct: Expressed in E. coli BL21(DE3); denatured and reduced for Western blotting; also called lane 9: K(47)-S(145); not shown: N-terminal His tag supplied by vector pET32
T3 sequence: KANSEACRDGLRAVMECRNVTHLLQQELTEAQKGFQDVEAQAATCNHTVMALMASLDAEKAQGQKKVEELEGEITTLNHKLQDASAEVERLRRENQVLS
As to the kind of experiment: Western blot of His-tagged BST2 fragment. The procedure:
as §1

For assay [3], the target named is T4, His-tagged recombinant human BST2 protein V(134)-Q(180) (human, UniProt Q10589 134-180, not fully specified).
T4 construct: Expressed in E. coli BL21(DE3); denatured and reduced for Western blotting; also called lane 7: V(134)----Q(180); not shown: N-terminal His tag supplied by vector pET32
T4 chain: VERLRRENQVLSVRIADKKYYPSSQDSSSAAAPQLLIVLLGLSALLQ
The assay can be described thus: Western blot of His-tagged BST2 fragment. Here is the method: as §1

Assay [4] addresses T5, His-tagged recombinant human BST2 protein E(135)-Q(180) (human, UniProt Q10589 135-180, not fully specified).
T5 construct: Expressed in E. coli BL21(DE3); denatured and reduced for Western blotting; also called lane 8: E(135)-----Q(180); not shown: N-terminal His tag supplied by vector pET32
T5 chain: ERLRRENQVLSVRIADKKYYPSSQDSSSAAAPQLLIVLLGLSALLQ
The assay can be described thus: Western blot of His-tagged BST2 fragment. Here is the method:
as §1

Assay [5] deals with T6, His-tagged recombinant human BST2 protein R(136)-Q(180) (human, UniProt Q10589 136-180, not fully specified).
T6 construct: Expressed in E. coli BL21(DE3); denatured and reduced for Western blotting; also called lane 9: R(136)------Q(180); not shown: N-terminal His tag supplied by vector pET32
T6 chain: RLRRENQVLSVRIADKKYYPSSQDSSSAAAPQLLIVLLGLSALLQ
The assay can be described thus: Western blot of His-tagged BST2 fragment. Here is the method: as §1

In assay [6] the target is T7, His-tagged recombinant human BST2 protein L(137)-Q(180) (human, UniProt Q10589 137-180, not fully specified).
T7 construct: Expressed in E. coli BL21(DE3); denatured and reduced for Western blotting; also called lane 10: L(137)-------Q(180); not shown: N-terminal His tag supplied by vector pET32
T7 chain: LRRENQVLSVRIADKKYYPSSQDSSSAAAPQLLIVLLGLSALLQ
The assay can be described thus: Western blot of His-tagged BST2 fragment. The procedure: as §1

Assay [7] concerns the target T8, His-tagged recombinant human BST2 protein K(47)-P(155) (human, UniProt Q10589 47-155).
T8 construct: Expressed in E. coli BL21(DE3); denatured and reduced for Western blotting; also called lane 3: K(47)----------P(155); not shown: N-terminal His tag supplied by vector pET32
T8 sequence: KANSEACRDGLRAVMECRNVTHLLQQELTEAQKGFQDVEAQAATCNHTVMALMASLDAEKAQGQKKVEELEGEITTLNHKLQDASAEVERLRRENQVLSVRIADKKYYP
As to the kind of experiment: Western blot of His-tagged BST2 fragment, 1 µg/ml antibody. Here is the method:
as §1

In assay [8] the target is T9, His-tagged recombinant human BST2 protein K(47)-D(150) (human, UniProt Q10589 47-150).
T9 construct: Expressed in E. coli BL21(DE3); denatured and reduced for Western blotting; also called lane 4: K(47)------D(150); not shown: N-terminal His tag supplied by vector pET32
T9 sequence: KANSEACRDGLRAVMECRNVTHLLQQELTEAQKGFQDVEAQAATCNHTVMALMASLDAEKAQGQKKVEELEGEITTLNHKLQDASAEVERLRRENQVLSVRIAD
Described as above. The procedure:
as §1

Assay [9] addresses T10, His-tagged recombinant human BST2 protein K(47)-A(149) (human, UniProt Q10589 47-149).
T10 construct: Expressed in E. coli BL21(DE3); denatured and reduced for Western blotting; also called lane 5: K(47)-----A(149); not shown: N-terminal His tag supplied by vector pET32
T10 sequence: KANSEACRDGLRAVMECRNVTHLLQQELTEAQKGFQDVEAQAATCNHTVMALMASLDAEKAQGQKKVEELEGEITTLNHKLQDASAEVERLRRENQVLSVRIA
The description is as above. The procedure:
as §1

Assay [10] addresses T11, His-tagged recombinant human BST2 protein K(47)-I(148) (human, UniProt Q10589 47-148).
T11 construct: Expressed in E. coli BL21(DE3); denatured and reduced for Western blotting; also called lane 6: K(47)----I(148); not shown: N-terminal His tag supplied by vector pET32
T11 sequence: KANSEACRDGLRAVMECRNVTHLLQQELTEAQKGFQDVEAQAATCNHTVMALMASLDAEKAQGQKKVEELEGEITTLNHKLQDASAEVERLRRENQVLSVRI
Described as above. The procedure: as §1

Assay [11] addresses T12, His-tagged recombinant human BST2 protein K(47)-R(147) (human, UniProt Q10589 47-147).
T12 construct: Expressed in E. coli BL21(DE3); denatured and reduced for Western blotting; not shown: N-terminal His tag supplied by vector pET32
T12 sequence: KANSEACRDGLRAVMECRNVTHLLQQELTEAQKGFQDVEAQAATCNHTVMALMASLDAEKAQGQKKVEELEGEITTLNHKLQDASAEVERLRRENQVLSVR
Described as above. Here is the method: as §1

The target of assay [12] is T13, His-tagged recombinant human BST2 protein S(131)-Q(180) (human, UniProt Q10589 131-180, not fully specified).
T13 construct: Expressed in E. coli BL21(DE3); denatured and reduced for Western blotting; also called lane 4: S(131)-Q(180); not shown: N-terminal His tag supplied by vector pET32
T13 chain: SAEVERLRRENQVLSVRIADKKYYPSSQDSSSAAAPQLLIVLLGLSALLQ
The assay is described as above. The procedure: as §1

Assay [13] has as its target T14, His-tagged recombinant human BST2 protein A(132)-Q(180) (human, UniProt Q10589 132-180, not fully specified).
T14 construct: Expressed in E. coli BL21(DE3); denatured and reduced for Western blotting; also called lane 5: A(132)--Q(180); not shown: N-terminal His tag supplied by vector pET32
T14 chain: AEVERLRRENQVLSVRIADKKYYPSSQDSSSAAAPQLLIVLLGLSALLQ
Described as above. The procedure:
as §1

The target in assay [14] is T15, His-tagged recombinant human BST2 protein E(133)-Q(180) (human, UniProt Q10589 133-180, not fully specified).
T15 construct: Expressed in E. coli BL21(DE3); denatured and reduced for Western blotting; not shown: N-terminal His tag supplied by vector pET32
T15 chain: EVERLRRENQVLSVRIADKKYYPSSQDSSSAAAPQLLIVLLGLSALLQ
The description is as above. Here is the method: as §1

In another assay the target is T16, human BST2D (human, UniProt Q10589 1-161).
T16 construct: Transmembrane glycoprotein, splicing variant D, 180 residues; also called type D BST2; BST2D-CHO cells
As to the kind of experiment: flow cytometry of hybridoma supernatant on 293T cells expressing human BST2D. Here is the method:
The hybridoma culture supernatants were analyzed by flow cytometry (FCM). The cells prepared as described in A of Example 1 were suspended in 0.5% BSA/2 mM EDTA/PBS, and collected into centrifuge tubes at 1×10⁵ cells/sample. 40 μl of each hybridoma culture supernatant was added, and the tubes were incubated at room temperature for 30 minutes. Then, a 1-ml aliquot of 0.5% BSA/2 mM EDTA/PBS was added to each tube, the tubes were centrifuged for three minutes at 1200 rpm and 4° C., and the supernatants were discarded; this washing process was repeated twice. A 40-μl aliquot of 100× diluted FITC-labeled goat anti-mouse IgG antibody (Beckman coulter; IM0819) was added to each tube after washing. The tubes were incubated at room temperature for 30 minutes. Following two rounds of washing, the hybridoma culture supernatants were analyzed with flow cytometer FC500 (Beckman coulter) to assess whether the antibody in the supernatants could specifically recognize human BST2D. […] The selected hybridomas were cloned by the limiting dilution method. The resulting hybridomas producing mouse anti-human BST2 antibody were named #3LD, #4LD, #7LD, #9LD, and #19LD.

Assay [15] has as its target BST2 on human myeloma-derived RPMI8226 cells (human) (UniProt Q10589). As to the kind of experiment: flow cytometry on RPMI8226 cells, Kd calculated with Prism 4 from percentage of staining at 0.01-10 µg/ml.

B1: mouse anti-human BST2 monoclonal antibody #4LD (antibody, V domains shown)
VH: DVQLQESGPGLVKPSQSLSLTCSVTGYSITSGYYWNWIRQFPGNKLEWMGYISYDGSNNYNPSLKNRISITRDTSKNQFFLKLNSVTTEDTATYYCAILGRGYWGQGTTLTVSS
VL: DIVLTQSPASLAVSLGQRATISCRASQSVSTSSYSYMHWYQQKPGQPPKLLIKYASNLESGVPARFSGSGSGTDFTLNIHPVEEEDTATYYCQHSWEIPYTFGGGTKLEIK
notes: Purified from hybridoma #4LD (FERM BP-10964); also called mouse antibody #4LD; anti-human BST2(D+/H-) antibody
For the molecule B1, the binding result in the assay with human BST2H is listed as “no binding”; in [1] it was “no binding (tested: 1 µg/ml)”; in assay [2] it was “no binding (tested: 1 µg/ml)”; in assay [3] it was “no binding (tested: 1 µg/ml)”; in assay [4], “no binding (tested: 1 µg/ml)”; in assay [5], “no binding (tested: 1 µg/ml)”. Besides, the binding result is reported as “no binding (tested: 1 µg/ml)” in assay [6]; “binds” in [7]; “binds” in [8]; “binds” in assay [9]; “binds” in assay [10]; “binds” in assay [11]. Besides, the binding result (in [12]; in assay [13]; in assay [14]; with human BST2D) was “binds” throughout. The Kd in assay [15] is 0.1 nM.
